Measured values published in patent publication US20170283834A1, “Processes for Producing A Fermentation Product Using A Fermenting Organism” (Novozymes A/S, priority 2014, published 2017).

Tests used:
[1] = test system: zein; assay: Thermostability of Protease Pfu (Relative Activity, methods of Example 2); format: biochemical; details: pH 4.5
Description: Yeast clones on SC-glucose were inoculated to a well of a 96-well micro titre plate containing YPD+Zn medium and cultivated at 28° C. for 3 days. The culture supernatants were applied to a 96-well zein micro titer plate and incubated at at least 2 temperatures (ex. 60° C. and 65° C., 70° C. and 75° C., 70° C. and 80° C.) for more than 4 hours or overnight. The turbidity of zein in the plate was measured as A630 and the relative activity (higher/lower temperatures) was determined as an indicator of thermoactivity improvement. The clones with higher relative activity than the parental variant were selected and the sequence was determined.
The thermostability of the Pyrococcus furiosus protease (Pfu S) purchased from Takara Bio Inc, (Japan) was tested using the same methods as in Example 2.

[2] = Glucoamylase activity (AGU) of variant compared to parent; format: biochemical; details: 37° C., pH 4.3, maltose 100 mM
Description: The Novo Glucoamylase Unit (AGU) is defined as the amount of enzyme, which hydrolyzes 1 micromole maltose per minute under the standard conditions 37° C., pH 4.3, substrate: maltose 23.2 mM, buffer: acetate 0.1 M, reaction time 5 minutes.
An autoanalyzer system may be used. Mutarotase is added to the glucose dehydrogenase reagent so that any alpha-D-glucose present is turned into beta-D-glucose. Glucose dehydrogenase reacts specifically with beta-D-glucose in the reaction mentioned above, forming NADH which is determined using a photometer at 340 nm as a measure of the original glucose concentration.
The glucoamylase activity measures as AGU as described above was checked for the purified enzymes of the wild type Penicillium oxalicum and the variant glucoamylase.
The Glucoamylase Unit (AGU) was defined as the amount of enzyme, which hydrolyzes 1 micromole maltose per minute under the standard conditions (37° C., pH 4.3, substrate: maltose 100 mM, buffer: acetate 0.1 M, reaction time 6 minutes).

[3] = test system: protease; details: cited from earlier work
[4] = test system: host proteases; assay: Cleavage during cultivation, SDS-PAGE of culture supernatants; parameters: species or system Aspergillus niger
Description: Aspergillus transformant of the variant and the wild type Penicillium oxalicum glucoamylase were cultivated in 6-well MT plates containing 4× diluted YP-2% maltose medium supplemented with 10 mM sodium acetate buffer, pH4.5, at 32° C. for 1 week.
The culture supernatants were loaded on SDS-PAGE.

[5] = Thermostability analysis by Differential Scanning Calorimetry (DSC); format: physicochemical
Description: . The thermal denaturation temperature, Td (° C.), was taken as the top of the denaturation peak (major endothermic peak) in thermograms (Cp vs. T) obtained after heating enzyme solutions in selected buffers (50 mM Sodium Acetate, pH 4.0 or 4.8) at a constant programmed heating rate of 200K/hr.
Sample- and reference-solutions (approximately 0.3 ml) were loaded into the calorimeter (reference: buffer without enzyme) from storage conditions at 10° C. and thermally pre-equilibrated for 10 minutes at 20° C. prior to DSC scan from 20° C. to 110° C. Denaturation temperatures were determined with an accuracy of approximately +/−1° C.

[6] = test system: aspergillopepsin I; assay: PE001 protease stability, SDS-PAGE after protease treatment; format: biochemical; details: for intact glucoamylase (ca. 70 kDa): aspergillopepsin I
Description: (§1) 40 μl enzyme solutions (1 mg/ml) in 50 mM sodium acetate buffer, pH 4.5, were mixed with 1/10 volume of 1 mg/ml protease solutions such as aspergillopepsin I described in Biochem J. 1975 April; 147(1):45-53, or the commercially available product from Sigma and aorsin described in Biochemical journal [0264-6021] Ichishima yr: 2003 vol:371 iss:Pt 2 pg:541 and incubated at 4 or 32° C. overnight. As a control experiment, H2O was added to the sample instead of proteases. The samples were loaded on SDS-PAGE to see if the glucoamylases are cleaved by proteases.

[7] = biological target: T1, aorsin (Aspergillus oryzae, UniProt Q8NK92); assay: as above; format: biochemical
T1 sequence (Q8NK92 216-652): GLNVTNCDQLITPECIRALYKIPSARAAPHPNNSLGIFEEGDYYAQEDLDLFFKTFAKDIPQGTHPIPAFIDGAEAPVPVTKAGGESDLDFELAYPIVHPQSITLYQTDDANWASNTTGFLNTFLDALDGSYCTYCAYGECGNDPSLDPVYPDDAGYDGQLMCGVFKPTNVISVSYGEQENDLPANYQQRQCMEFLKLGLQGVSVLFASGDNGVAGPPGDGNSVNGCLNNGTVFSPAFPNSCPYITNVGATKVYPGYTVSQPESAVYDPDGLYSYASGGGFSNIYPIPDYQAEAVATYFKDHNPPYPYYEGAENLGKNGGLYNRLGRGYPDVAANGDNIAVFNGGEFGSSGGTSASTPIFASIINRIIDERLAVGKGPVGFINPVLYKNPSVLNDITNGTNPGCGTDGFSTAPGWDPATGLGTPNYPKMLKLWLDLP
Description: as §1

[8] = Protein thermal unfolding analysis (TSA, Thermal shift assay); format: physicochemical
Description: Protein thermal unfolding of the T65A and Q327F variants, was monitored using Sypro Orange (In-vitrogen, S-6650) and was performed using a real-time PCR instrument (Applied Biosystems; Step-One-Plus).
In a 96-well plate, 25 microliter micropurified sample in 50 mM Acetate pH4,5 at approx. 100 microgram/ml was mixed (5:1) with Sypro Orange (resulting conc.=5×; stock solution from supplier=5000×). The plate was sealed with an optical PCR seal. The PCR instrument was set at a scan-rate of 76° C. pr. hr, starting at 25° C. and finishing at 96° C.
Protein thermal unfolding of the E501V+Y504T variant, was monitored using Sypro Orange (In-vitrogen, S-6650) and was performed using a real-time PCR instrument (Applied Biosystems; Step-One-Plus).
In a 96-well plate, 15 microliter purified sample in 50 mM Acetate pH4,5 at approx. 50 microgram/ml was mixed (1:1) with Sypro Orange (resulting conc.=5×; stock solution from supplier=5000×) with or without 200 ppm Acarbose (Sigma A8980). The plate was sealed with an optical PCR seal. The PCR instrument was set at a scan-rate of 76 degrees C. pr. hr, starting at 25° C. and finishing at 96° C.
Fluorescence was monitored every 20 seconds using in-built LED blue light for excitation and ROX-filter (610 nm, emission).
Tm-values were calculated as the maximum value of the first derivative (dF/dK) (ref.: Gregory et al; J Biomol Screen 2009 14: 700.)

[9] = test system: azo-casein; assay: Remaining activity assay of protease variants (azo-casein); format: biochemical; details: 10 min at 84° C., pH 4.5, 4° C. as reference
Description: Yeast clones on SC-glucose were inoculated to a well of a 96-well micro titre plate and cultivated at 28° C. for 3 days. Protease activity was measured at 65° C. using azo-casein (Megazyme) after incubating the culture supernatant in 20 mM sodium acetate buffer, pH 4.5, for 10 min at a certain temperature (80° C. or 84° C. with 4° C. as a reference) to determine the remaining activity. The clones with higher remaining activity than the parental variant were selected and the sequence was determined.
20 microL of samples were mixed with 150 microL of substrate solution (4 ml of 12.5% azo-casein in ethanol in 96 ml of 20 mM sodium acetate, pH 4.5, containing 0.01% triton-100 and 0.25 mM ZnSO4) and incubated for 4 hours or longer.
After adding 20 microL/well of 100% trichloroacetic acid (TCA) solution, the plate was centrifuge and 100 microL of supernatants were pipette out to measure A440.

[10] = test system: zein; assay: Relative activity assay of protease variants (zein micro titer plate); format: biochemical; details: Table 4
How it was run: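 Yeast culture supernatants (3 days, 28 °C) incubated over 4 h or overnight on zein-agar plates (pH 4.5 acetate, 0.25 mM ZnSO4) at two temperatures. Zein turbidity read at A630; higher/lower-temperature activity ratio gives relative thermoactivity.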

B1: Pfu S: commercial Pyrococcus furiosus protease purchased from Takara Bio Inc, (Japan); SEQ ID NO: 13 (protein, listed as Pyrococcus furiosus)
chain: AELEGLDESAAQVMATYVWNLGYDGSGITIGIIDTGIDASHPDLQGKVIGWVDFVNGRSYPYDDHGHGTHVASIAAGTGAASNGKYKGMAPGAKLAGIKVLGADGSGSISTIIKGVEWAVDNKDKYGIKVINLSLGSSQSSDGTDALSQAVNAAWDAGLVVVVAAGNSGPNKYTIGSPAAASKVITVGAVDKYDVITSFSSRGPTADGRLKPEVVAPGNWIIAARASGTSMGQPINDYYTAAPGTSMATPHVAGIAALLLQAHPSWTPDKVKTALIETADIVKPDEIADIAYGAGRVNAYKAINYDNYAKLVFTGYVANKGSQTHQFVISGASFVTATLYWDNANSDLDLYLYDPNGNQVDYSYTAYYGFEKVGYYNPTDGTWTIKVVSYSGSANYQVDVVSDGSLSQPGSS
modifications: mat_peptide (1)..(412) Pyrococcus furiosus protease (Pfu)
In the case of B1, the “thermostability (Relative Activity) 80° C./70° C.” value [1] is reported as 110% and the “thermostability (Relative Activity) 90° C./70° C.” value [1] is reported as 103%.

B2: PE001: Penicillium oxalicum glucoamylase SEQ ID NO: 14 with K79V substitution (protein, listed as Penicillium oxalicum)
chain: RPDPKGGNLTPFIHKEGERSLQGILDNLGGRGKKTPGTAAGLFIASPNTENPNYYYTWTRDSALTAKCLIDLFEDSRAVFPIDRKYLETGIRDYKSSQAILQSVSNPSGTLKDGSGLGEPKFEIDLNPFSGAWGRPQRDGPALRATAMITYANYLISHGQKSDVSQVMWPIIANDLAYVGQYWNNTGFDLWEEVDGSSFFTIAVQHRALVEGSQLAKKLGKSCDACDSQPPQILCFLQSFWNGKYITSNINTQASRSGIDLDSVLGSIHTFDPEAACDDATFQPCSARALANHKVYVDSFRSIYKINAGLAEGSAANVGRYPEDVYQGGNPWYLATLGASELLYDALYQWDRLGKLEVSETSLSFFKDFDATVKIGSYSRNSKTYKKLTQSIKSYADGFIQLVQQYTPSNGSLAEQYDRNTAAPLSANDLTWSFASFLTATQRRDAVVPPSWGAKSANKVPTTCSASPVVGTYKAPTATFSSKTKCVPAKDIVPITFYLIENTYYGENVFMSGNITALGNWDAKKGFPLTANLYTQDQNLWFASVEFIPAGTPFEYKYYKVEPNGDITWEKGPNRVFVAPTGCPVQPHSNDVWQF
modifications: mat_peptide (1)..(595) mature Penicillium oxalicum glucoamylase sequence
For B2, the “Relative specific activity AGU/mg” value [2] is listed as 102%, the “sensitivity to protease degradation relative to the parent” value [3] is listed as “reduced sensitivity to protease degradation relative to the parent” and the “cleavage by host proteases during fermentation” value [4] is listed as “yielded only intact molecule”. For the same molecule, the “intact glucoamylase (ca. 70 kDa)” value ([4]; culture supernatant, 32° C., 1 week) was 100%, the “DSC Td (° C.) @ pH 4.0” value ([5]; pH 4.0, 50 mM Sodium Acetate) was 82.1 °C and the “DSC Td (° C.) @ pH 4.8” value ([5]; pH 4.8, 50 mM Sodium Acetate) was 83.4 °C. For the same molecule, the “intact glucoamylase (ca. 70 kDa)” value ([6]; incubation 4° C. overnight) was 100%, the “intact glucoamylase (ca. 70 kDa)” value ([6]; incubation 32° C. overnight) was 100% and the “SDS-PAGE result after protease treatment” value ([6]; proteases (aspergillopepsin I, aorsin)) was “only showed one band corresponding to the intact molecule”. The “intact glucoamylase (ca. 70 kDa)” value ([7]; incubation 4° C. overnight) was 100%, the “intact glucoamylase (ca. 70 kDa)” value ([7]; incubation 32° C. overnight) was 100% and the “Tm (Deg. Celsius) +/−0.4” value ([8]; Table 14a, 50 mM Acetate pH 4,5) was 80.3 Deg. Celsius. For the same molecule, the “Tm (Deg. Celsius) +/−0.4” value ([8]; Table 14b, Acarbose: + (200 ppm)) was 86.9 Deg. Celsius and the “Tm (Deg. Celsius) +/−0.4” value ([8]; Table 14b, Acarbose: −) was 79.5 Deg. Celsius.

B3: JTP082: protease variant of SEQ ID NO: 3: ΔS5/D79L/S87P/A112P/D142L (protein, listed as Thermoascus aurantiacus)
chain: MRLVASLTALVALSVPVFPAAVNVKRASSYLEITLSQVSNTLIKAVVQNTGSDELSFVHLNFFKDPAPVKKVSVYRDGSEVQFEGILSRYKSTGLSRDAFTYLAPGESVEDVFDIASTYDLTSGGPVTIRTEGVVPYATANSTDIAGYISYSSNVLTIDVDGAAAATVSKAITPLDRRTRISCSGSRQSALTTALRNAASLANAAADAAQSGSASKFSEYFKTTSSSTRQTVAARLRAVAREASSSSSGATTYYCLDPYGYCSPNVLAYTLPSYNIIANCDIFYTYLPPLTSTCHAQDQATTALHEFTHAPGVYSPGTLDLAYGYQAAMGLSSSQAVMNADTYALYANAIYLGC
For B3, the “Remaining activity 84° C.” value [9] was 53% and the “Relative activity 75° C./65° C.” value [10] was 129%.
